Data from PMC10786891, “Massively parallel profiling of RNA-targeting CRISPR-Cas13d”.
Residue numbers refer to the chain shown, from its start. Names may count otherwise.

Biological target: T1, EsCas13d, nuclease-dead (Eubacterium siraeum, UniProt B0MS50, R295A;H300A;R849A;H854A)
T1 sequence: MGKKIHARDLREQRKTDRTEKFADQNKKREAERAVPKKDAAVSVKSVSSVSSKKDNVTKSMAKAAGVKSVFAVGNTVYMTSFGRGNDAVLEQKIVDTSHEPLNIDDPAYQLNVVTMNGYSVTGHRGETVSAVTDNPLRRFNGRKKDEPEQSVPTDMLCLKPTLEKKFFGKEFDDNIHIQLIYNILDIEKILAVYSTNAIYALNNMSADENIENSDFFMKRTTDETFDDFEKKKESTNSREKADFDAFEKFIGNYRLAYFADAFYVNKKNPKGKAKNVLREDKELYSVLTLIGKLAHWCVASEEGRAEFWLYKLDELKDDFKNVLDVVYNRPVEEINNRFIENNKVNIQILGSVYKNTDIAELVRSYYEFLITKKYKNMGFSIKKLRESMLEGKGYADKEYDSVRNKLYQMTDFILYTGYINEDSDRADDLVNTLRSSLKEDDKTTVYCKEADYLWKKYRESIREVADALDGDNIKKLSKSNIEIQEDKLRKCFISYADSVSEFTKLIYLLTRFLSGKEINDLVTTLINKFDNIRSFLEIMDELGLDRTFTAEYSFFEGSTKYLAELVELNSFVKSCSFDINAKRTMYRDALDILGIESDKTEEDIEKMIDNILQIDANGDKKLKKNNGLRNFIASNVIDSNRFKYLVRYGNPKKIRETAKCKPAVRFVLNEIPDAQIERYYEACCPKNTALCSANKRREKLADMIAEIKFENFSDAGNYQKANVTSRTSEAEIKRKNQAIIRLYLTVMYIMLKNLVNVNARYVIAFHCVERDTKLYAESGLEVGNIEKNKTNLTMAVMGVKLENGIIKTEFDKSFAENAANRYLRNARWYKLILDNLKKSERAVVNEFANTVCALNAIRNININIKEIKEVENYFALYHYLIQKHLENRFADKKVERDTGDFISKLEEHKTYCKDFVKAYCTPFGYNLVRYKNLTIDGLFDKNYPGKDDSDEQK
Experiment: crRNA (strand 1, pre-loaded); Mg2+; 40 mM Tris-HCl pH 7.5, 150 mM NaCl, 6 mM MgCl2, 1 mM DTT, 0.1% Tween-20, 0.2 mg/ml BSA; 25 C; 10 min per concentration, then washed
Settings: tags: His6-TwinStrep-SUMO cleaved; N-terminal SNAP kept (SNAP-Surface 488); label: 3' end held by stalled T7 RNA polymerase

B1: target 1 MT 5'PFS GCC 3'PFS AGU (mixed)
RNA 1: CACCCGUGCAAAAAUGCAGGGGUCUAAAACUGAGCGGAUAACCUCUCUAUGG
RNA 2: GGGAAUGGAUCCACAUCUACGAAUUCGCCCCAUAGAGAGGUUAUCCGCUCAAGUAGAUCGGAAGAGCACACGU
For B1, the Kd was 27 ± 7 nM.

B2: target 1 MT 5'PFS CAC 3'PFS ACA (mixed)
RNA 1: B1 RNA 1
RNA 2: B1 RNA 2 with G27C, C28A, G53C, U54A
Binder B2 has a Kd of ~45.5 nM.

B3: target 1 MT 5'PFS GCU 3'PFS UCG (mixed)
RNA 1: B1 RNA 1
RNA 2: B1 RNA 2 with C29U, A52U, G53C, U54G
B3 showed a Kd of 39 ± 8 nM.

B4: target 1 MT 5'PFS CAC 3'PFS ACU (mixed)
RNA 1: B1 RNA 1
RNA 2: B1 RNA 2 with G27C, C28A, G53C
B4 was tested, and the Kd was 21 ± 7.5 nM.

B5: target 1 C2A,U11C (mixed)
RNA 1: B1 RNA 1
RNA 2: B1 RNA 2 with C28U, C29A, U41C, C50A, A52C, G53C, U54G
In the case of B5, the Kd is reported as 9.5 ± 0.7 nM.

B6: target 1 MT 5'PFS GAA 3'PFS UUU (mixed)
RNA 1: B1 RNA 1
RNA 2: B1 RNA 2 with C28A, C29A, A52U, G53U
B6 gave a Kd of 15.3 ± 2.75 nM.

B7: target 1 MT 5'PFS AGG 3'PFS AUU (mixed)
RNA 1: B1 RNA 1
RNA 2: B1 RNA 2 with G27A, C28G, C29G, G53U
Work on B7 yielded a Kd of 26.5 ± 7 nM.

B8: target 1 MT 5'PFS CCU 3'PFS CUA (mixed)
RNA 1: B1 RNA 1
RNA 2: B1 RNA 2 with G27C, C29U, A52C, G53U, U54A
B8 gave a Kd of 12.5 ± 6 nM.

B9: target 1 MT 5'PFS GCU 3'PFS UCA (mixed)
RNA 1: B1 RNA 1
RNA 2: B1 RNA 2 with C29U, A52U, G53C, U54A
B9 was tested, and the Kd was 27.5 ± 6.5 nM.

B10: target 1 MT 5'PFS UAG 3'PFS ACG (mixed)
RNA 1: B1 RNA 1
RNA 2: B1 RNA 2 with G27U, C28A, C29G, G53C, U54G
For B10, the Kd was 19.1 ± 2.85 nM.

B11: target 1 MT 5'PFS UAG 3'PFS ACA (mixed)
RNA 1: B1 RNA 1
RNA 2: B1 RNA 2 with G27U, C28A, C29G, G53C, U54A
In the case of B11, the Kd is reported as 31.5 ± 9.5 nM.

B12: target 1 MT 5'PFS GCA 3'PFS AUG (mixed)
RNA 1: B1 RNA 1
RNA 2: B1 RNA 2 with C29A, G53U, U54G
B12 gave a Kd of 24.5 ± 6 nM.

B13: target 1 MT 5'PFS UAG 3'PFS ACC (mixed)
RNA 1: B1 RNA 1
RNA 2: B1 RNA 2 with G27U, C28A, C29G, G53C, U54C
Binder B13 has a Kd of 28.5 ± 6.5 nM.

B14: target 1 MT 5'PFS GUU 3'PFS CAU (mixed)
RNA 1: B1 RNA 1
RNA 2: B1 RNA 2 with C28U, C29U, A52C, G53A
Binder B14 has a Kd of 22.5 ± 7 nM.

B15: target 1 MT 5'PFS GCA 3'PFS AUU (mixed)
RNA 1: B1 RNA 1
RNA 2: B1 RNA 2 with C29A, G53U
In the case of B15, the Kd is reported as 15.5 ± 2.95 nM.

B16: target 1 MT 5'PFS UGC 3'PFS AGA (mixed)
RNA 1: B1 RNA 1
RNA 2: B1 RNA 2 with G27U, C28G, U54A
In the case of B16, the Kd is reported as ~23 nM.

B17: target 1 MT 5'PFS CAC 3'PFS ACG (mixed)
RNA 1: B1 RNA 1
RNA 2: B1 RNA 2 with G27C, C28A, G53C, U54G
B17 showed a Kd of ~22 nM.

B18: target 1 MT 5'PFS UCG 3'PFS CAU (mixed)
RNA 1: B1 RNA 1
RNA 2: B1 RNA 2 with G27U, C29G, A52C, G53A
In the case of B18, the Kd is reported as ~80 nM.

B19: target 1 MT 5'PFS GCC 3'PFS AGA (mixed)
RNA 1: B1 RNA 1
RNA 2: B1 RNA 2 with U54A
With B19 the Kd was 24.5 ± 8 nM.

B20: target 1 MT 5'PFS GCU 3'PFS UCC (mixed)
RNA 1: B1 RNA 1
RNA 2: B1 RNA 2 with C29U, A52U, G53C, U54C
B20 showed a Kd of 37.5 ± 13 nM.

B21: target 1 MT 5'PFS UGU 3'PFS AAU (mixed)
RNA 1: B1 RNA 1
RNA 2: B1 RNA 2 with G27U, C28G, C29U, G53A
B21 showed a Kd of ~100 nM.

B22: target 1 insG 3' of 18,insC 3' of 11 (mixed)
RNA 1: B1 RNA 1
RNA 2: GGGAAUGGAUCCACAUCUACGAAUUCGUACCAUAGGAGAGGUCUAUCCGCUCACCGAGAUCGGAAGAGCACACGU
With B22 the Kd was 99 ± 19 nM.

B23: target 1 MT 5'PFS AAA 3'PFS CUG (mixed)
RNA 1: B1 RNA 1
RNA 2: B1 RNA 2 with G27A, C28A, C29A, A52C, G53U, U54G
Binder B23 has a Kd of 22.5 ± 5 nM.

B24: target 1 MT 5'PFS GCA 3'PFS AUC (mixed)
RNA 1: B1 RNA 1
RNA 2: B1 RNA 2 with C29A, G53U, U54C
With B24 the Kd was ~28 nM.

B25: target 1 MT 5'PFS GCC 3'PFS AGC (mixed)
RNA 1: B1 RNA 1
RNA 2: B1 RNA 2 with U54C
Work on B25 yielded a Kd of 13.1 ± 3.8 nM.

B26: target 1 MT 5'PFS UCC 3'PFS CGA (mixed)
RNA 1: B1 RNA 1
RNA 2: B1 RNA 2 with G27U, A52C, U54A
In the case of B26, the Kd is reported as ~48.5 nM.

B27: target 1 MT 5'PFS AGA 3'PFS CGC (mixed)
RNA 1: B1 RNA 1
RNA 2: B1 RNA 2 with G27A, C28G, C29A, A52C, U54C
With B27 the Kd was 37 ± 11 nM.

B28: target 1 MT 5'PFS GCC 3'PFS AGG (mixed)
RNA 1: B1 RNA 1
RNA 2: B1 RNA 2 with U54G
Binder B28 has a Kd of 37 ± 9.5 nM.

B29: target 1 C4A,A14G (mixed)
RNA 1: B1 RNA 1
RNA 2: B1 RNA 2 with C28U, C29A, A38G, C48A, A52C, G53C, U54G
With B29 the Kd was 14.8 ± 1.5 nM.

B30: target 1 MT 5'PFS GGG 3'PFS CGA (mixed)
RNA 1: B1 RNA 1
RNA 2: B1 RNA 2 with C28G, C29G, A52C, U54A
B30 showed a Kd of ~71 nM.

B31: target 1 MT 5'PFS AGG 3'PFS AUA (mixed)
RNA 1: B1 RNA 1
RNA 2: B1 RNA 2 with G27A, C28G, C29G, G53U, U54A
B31 showed a Kd of 26.5 ± 8.5 nM.

B32: target 1 MT 5'PFS AGA 3'PFS CGA (mixed)
RNA 1: B1 RNA 1
RNA 2: B1 RNA 2 with G27A, C28G, C29A, A52C, U54A
Work on B32 yielded a Kd of ~90 nM.

B33: target 1 MT 5'PFS AGA 3'PFS CGG (mixed)
RNA 1: B1 RNA 1
RNA 2: B1 RNA 2 with G27A, C28G, C29A, A52C, U54G
For B33, the Kd was 41.5 ± 12.5 nM.

B34: target 1 MT 5'PFS GUC 3'PFS GCG (mixed)
RNA 1: B1 RNA 1
RNA 2: B1 RNA 2 with C28U, A52G, G53C, U54G
In the case of B34, the Kd is reported as 15.5 ± 7.5 nM.

B35: target 1 MT 5'PFS CCA 3'PFS UUU (mixed)
RNA 1: B1 RNA 1
RNA 2: B1 RNA 2 with G27C, C29A, A52U, G53U
B35 was tested, and the Kd was 2.4 ± 0.9 nM.

B36: target 1 MT 5'PFS GCU 3'PFS UCU (mixed)
RNA 1: B1 RNA 1
RNA 2: B1 RNA 2 with C29U, A52U, G53C
For B36, the Kd was 30 ± 7 nM.

B37: target 1 MT 5'PFS GCA 3'PFS AUA (mixed)
RNA 1: B1 RNA 1
RNA 2: B1 RNA 2 with C29A, G53U, U54A
Work on B37 yielded a Kd of 25.5 ± 8.5 nM.

B38: target 1 insU 3' of 18,insG 3' of 16 (mixed)
RNA 1: B1 RNA 1
RNA 2: B22 RNA 2 with G35U, A39G, G40A, U42G, C43U
For B38, the Kd was 73 ± 31 nM.

B39: target 1 MT 5'PFS CUU 3'PFS UGC (mixed)
RNA 1: B1 RNA 1
RNA 2: B1 RNA 2 with G27C, C28U, C29U, A52U, U54C
For B39, the Kd was 22 ± 7 nM.

B40: target 1 MT 5'PFS CUU 3'PFS AGU (mixed)
RNA 1: B1 RNA 1
RNA 2: B1 RNA 2 with G27C, C28U, C29U
With B40 the Kd was 48 ± 12.5 nM.
